From US20180051072A1 (RPEPTIDE, published 2018)

Legend:
[1] = target: T1, Aβ(1-40) (human); assay: ELISA; reacts best with peptide that has not crossed through the isoelectric point
T1 construct: Peptide as coated on ELISA plates; its state of aggregation is not specified; also called Aβ-1-40 peptide; Beta-Amyloid 1-40

[2] = target: T1, Aβ(1-40); assay: ELISA, peptide coated on plate
[3] = target: T2, Beta-Amyloid 1-42 monomer (human); assay: western blot, 7E7 as primary antibody (FIG. 20)
T2 construct: also called Beta-Amyloid Monomer; Aβ monomer (1-42)
T2 sequence (peptide, as listed by the source): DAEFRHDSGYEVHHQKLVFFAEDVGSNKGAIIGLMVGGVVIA
Description: (§1) Western blots were performed to determine the extent of 7E7 binding to human Beta-Amyloid, specifically to determine if the antibody binds to Aβ aggregates, Aβ monomer, or both. This procedure applies to any Aβ peptide or peptide fragment which is composed of up to and including 40 or 42 amino acids. Before beginning the assay the vials of Aβ to be used were treated with 1,1,1,3,3,3-Hexafluoro-2-propanol (Aldrich Chemistry #105228-100G) (also known as HFIP) at a rate of 150 μL HFIP per 0.5 mg peptide). Once the HFIP was added to the lyophilized pellet the vials were sonicated for exactly one minute, or until the solution was clear. Once the dissolved peptide had taken on a clear appearance, the HFIP was gently evaporated out of each vial by passing Argon gas directly into the vial with the rubber stopper open just enough to allow the gasses and fumes to escape. When the inside of the vials was free of any remaining liquid, the remaining peptide is dissolved with 1% Ammonium Hydroxide at a rate which yields a peptide concentration of 1 mg/mL. 10 μL of this solution was mixed with 90μL of Milli-Q water, and from that 100 μL mixture 20 μL was added to 50 μL XT Sample Buffer (Bio-Rad #161-0791) and 130μL Milli-Q water for a final sample volume of 200 μL. No 2-Mercaptoethanol was added, and the samples were not heated. […] Instead the mixture was gently mixed by using a pipette. […]

[4] = target: T3, Beta-Amyloid 1-40 monomer (human); assay: western blot, 7E7 as primary antibody (FIG. 20)
T3 construct: also called Beta-Amyloid Monomer; Aβ monomer (1-40)
T3 sequence (peptide, as listed by the source): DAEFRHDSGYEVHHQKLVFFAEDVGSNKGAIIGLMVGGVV
Description: as §1

[5] = target: T4, Aβ(1-42) (human); assay: ELISA, varying peptide amounts, 7E7 at 1:1,000 (FIG. 11)
T4 construct: its state of aggregation is not specified; also called Beta-Amyloid 1-42; Aβ42

B1: monoclonal antibody 6C2 (antibody, V domains shown)
VH: EVQLQQSGPELVKPGASVKISCKASGYSFTGYFLSWVKQSHGRSLEWIGRINPYNGHTFYNQKFKDKATLTVDKSSTTAHMELLSLTSEDSAVYYCAGSDSWGQGTTLTVSS
VL: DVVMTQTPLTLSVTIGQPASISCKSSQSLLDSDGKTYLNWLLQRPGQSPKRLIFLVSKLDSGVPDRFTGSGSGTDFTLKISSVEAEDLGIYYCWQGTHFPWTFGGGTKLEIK
notes: Hybridoma monoclonal antibody; also called mAb 6C2; Beta Amyloid 6C2
Question: Does B1 bind [1]?
Answer: binds

B2: monoclonal antibody 7E7 (antibody, V domains shown)
VH: EVKLVESGGGLVQPGSSQRLSCATSGFTFTDYYMSWVRQPPGKALEWLGFIRNKTKRYTTEYSASVKGRFTISRDNSQSILYLQMNTLRAEDSATYYCARDDPYARFAYWGQGTLVTVSA
VL: DVVMTQTPLSLPVSLGDQASISCRSGQSLVHRNGNTYLHWYLQKPGQSPKLLIYKVSNRFSGVPDRFSGSGTGTDFTLKISRVEAEDLGVYFCSQSTHVPFTFGSGTKLEIK
notes: Hybridoma monoclonal antibody raised against 1-42 rubredoxin fusion, detected with goat anti-mouse IgG (H+L); also called mAb 7E7; Beta Amyloid 7E7
Question: What does the source list for B2?
Answer: binding result [2]: binds; binding result [3]: binds; binding result [4]: binds; binding result [5]: binds
